Results as given in the supplement of paper PMC10724198.
± gives the standard deviation of the averaged measurements.

Legend:
Saccharomyces cerevisiae [1] = experiment: protein stability index of tFT-peptide fusion (C-terminal peptide) (PSI (0-1 scale)); higher = more stable (slower turnover)
Protocol: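 MPS profiling in S. cerevisiae of the tFT-X12 degron library: putative degron peptides plus stable controls, 12 aa, fused to the C-terminus of a sfGFP-mCherry timer. Cells are FACS-sorted into 8 mCherry/sfGFP bins and deep-sequenced. PSI runs from 0 (unstable) to 1 (stable). Backgrounds are wild type, das1Δ and doa10Δ at 30 °C, and wild type, das1Δ, cdc34-1 and cdc53-1 at 37 °C; 2-3 technical replicates each.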

Saccharomyces cerevisiae [2] = experiment: as above; conditions: genetic background: wild type; temperature: 30 C
[3] = genetic background: cdc34-1, temperature: 37 C
[4] = genetic background: cdc53-1, temperature: 37 C
[5] = genetic background: das1 deletion, temperature: 30 C
[6] = genetic background: das1 deletion, temperature: 37 C
[7] = genetic background: doa10 deletion, temperature: 30 C
[8] = genetic background: wild type, temperature: 30 C
[9] = genetic background: wild type, temperature: 37 C
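Also: PSI is a weighted mean of sequencing reads over stability bins, variants kept only with over 10 reads, mCherry proximal and sfGFP distal, peptide attached via GGGS linker.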

Row | Sequence | protein stability index (Saccharomyces cerevisiae [1]; [3]) | protein stability index (Saccharomyces cerevisiae [1]; [4]) | protein stability index (Saccharomyces cerevisiae [1]; [5]) | protein stability index (Saccharomyces cerevisiae [1]; [6]) | protein stability index (Saccharomyces cerevisiae [1]; [7]) | protein stability index (Saccharomyces cerevisiae [1]; [8]) | protein stability index (Saccharomyces cerevisiae [1]; [9]) | protein stability index (Saccharomyces cerevisiae [2])
1 | DPTLLLYPLSPL | 0.688 ± 0.018 | 0.765 ± 0.0076 | 0.654 ± 0.019 | 0.748 ± 0.014 | 0.667 ± 0.029 | 0.685 ± 0.035 | 0.72 ± 0.023 | 0.57 ± 0.2
2 | DVVRWQRVRNYV | 0.687 ± 0.024 | 0.7218 ± 0.0072 | 0.632 ± 0.022 | 0.737 ± 0.0088 | 0.2746 ± 0.0021 | 0.3 ± 0.028 | 0.573 ± 0.0059 | 0.454 ± 0.041
3 | EGGGGRFWVCVG | 0.676 ± 0.044 | 0.732 ± 0.012 | 0.631 ± 0.0097 | 0.748 ± 0.014 | 0.258 ± 0.0033 | 0.298 ± 0.034 | 0.596 ± 0.018 | 0.425 ± 0.028
4 | EKHRRYAITKFI | 0.666 ± 0.019 | 0.694 ± 0.052 | 0.659 ± 0.027 | 0.732 ± 0.025 | 0.155 ± 0.0053 | 0.196 ± 0.058 | 0.407 ± 0.1 | 0.28 ± 0.043
5 | EKKNQTAYNKTV | 0.691 ± 0.035 | 0.71 ± 0.023 | 0.644 ± 0.013 | 0.707 ± 0.022 | 0.149 ± 0.021 | 0.176 ± 0.028 | 0.365 ± 0.0059 | 0.39 ± 0.018
6 | EKTKTKRERKIN | 0.576 ± 0.0019 | 0.696 ± 0.008 | 0.626 ± 0.045 | 0.715 ± 0.036 | 0.165 ± 0.0048 | 0.191 ± 0.015 | 0.384 ± 0.0062 | 0.312 ± 0.028
7 | ELNERRKRLVTN | 0.623 ± 0.052 | 0.737 ± 0.01 | 0.6615 ± 0.0035 | 0.718 ± 0.0088 | 0.13 ± 0.021 | 0.142 ± 0.012 | 0.268 ± 0.033 | 0.304 ± 0.011
8 | ERNERKYKIKIT | 0.699 ± 0.018 | 0.724 ± 0.035 | 0.609 ± 0.042 | 0.715 ± 0.026 | 0.179 ± 0.013 | 0.239 ± 0.037 | 0.461 ± 0.034 | 0.374 ± 0.041
9 | ESCFGMAIFCVT | 0.526 ± 0.012 | 0.571 ± 0.011 | 0.37 ± 0.03 | 0.5841 ± 0.0045 | 0.301 ± 0.012 | 0.334 ± 0.03 | 0.525 ± 0.01 | 0.466 ± 0.024
10 | ESCIFLMWLTVL | 0.177 ± 0.013 | 0.273 ± 0.024 | 0.222 ± 0.032 | 0.379 ± 0.0044 | 0.0814 ± 0.021 | 0.0868 ± 0.012 | 0.0936 ± 0.013 | 0.136 ± 0.0054
11 | ESFIKFALYIVN | 0.557 ± 0.052 | 0.604 ± 0.0067 | 0.435 ± 0.023 | 0.621 ± 0.014 | 0.348 ± 0.013 | 0.358 ± 0.036 | 0.5099 ± 0.00084 | 0.419 ± 0.0082
12 | EVVFHVFLVGLV | 0.314 ± 0.015 | 0.451 ± 0.015 | 0.292 ± 0.035 | 0.512 ± 0.018 | 0.203 ± 0.012 | 0.274 ± 0.013 | 0.464 ± 0.0058 | 0.362 ± 0.0059
13 | FALPPSLLLLSA | 0.544 ± 0.019 | 0.557 ± 0.013 | 0.442 ± 0.027 | 0.5917 ± 0.0017 | 0.418 ± 0.0085 | 0.449 ± 0.016 | 0.55962 ± 0.00044 | 0.501 ± 0.026
14 | FCCLIGYIWYGW | 0.45071 ± 0.00045 | 0.5083 ± 0.00082 | 0.392 ± 0.041 | 0.527 ± 0.013 | 0.344 ± 0.0071 | 0.363 ± 0.011 | 0.514 ± 0.039 | 0.488 ± 0.019
15 | FCFLLLSWAFWV | 0.155 ± 0.026 | 0.205 ± 0.0084 | 0.171 ± 0.03 | 0.27279 ± 7.6e-05 | 0.0977 ± 0.011 | 0.103 ± 0.026 | 0.1757 ± 0.00047 | 0.159 ± 0.048
16 | FCFVRGLLFLFF | 0.476 ± 0.0094 | 0.574 ± 0.065 | 0.383 ± 0.035 | 0.5423 ± 0.0025 | 0.386 ± 0.013 | 0.36 ± 0.034 | 0.506 ± 0.023 | 0.442 ± 0.06
17 | FCIYLCLSTSIT | 0.0795 ± 0.0063 | 0.221 ± 0.0083 | 0.14 ± 0.036 | 0.306 ± 0.025 | 0.119 ± 0.0062 | 0.129 ± 0.027 | 0.247 ± 0.0029 | 0.374 ± 0.084
18 | FCSLLVLLFFGV | 0.395 ± 0.042 | 0.4792 ± 0.0038 | 0.334 ± 0.018 | 0.473 ± 0.0052 | 0.323 ± 0.025 | 0.337 ± 0.022 | 0.466 ± 0.013 | 0.39365 ± 4e-05
19 | FELSVSVFQSVV | 0.318 ± 0.048 | 0.388 ± 0.0039 | 0.374 ± 0.023 | 0.3368 ± 0.002 | 0.409 ± 0.048 | 0.384 ± 0.044 | 0.318 ± 0.0051 | 0.338 ± 0.031
20 | FERVEYEVLGIG | 0.35 ± 0.0065 | 0.441 ± 0.037 | 0.394 ± 0.0079 | 0.449 ± 0.017 | 0.395 ± 0.012 | 0.38 ± 0.017 | 0.44 ± 0.021 | 0.415 ± 0.014

Row | Sequence | protein stability index (Saccharomyces cerevisiae [1]; [3]) | protein stability index (Saccharomyces cerevisiae [1]; [4]) | protein stability index (Saccharomyces cerevisiae [1]; [5]) | protein stability index (Saccharomyces cerevisiae [1]; [6]) | protein stability index (Saccharomyces cerevisiae [1]; [7]) | protein stability index (Saccharomyces cerevisiae [1]; [8]) | protein stability index (Saccharomyces cerevisiae [1]; [9]) | protein stability index (Saccharomyces cerevisiae [2])
21 | FFASAAVHLVTC | 0.513 ± 0.01 | 0.521 ± 0.032 | 0.435 ± 0.02 | 0.559 ± 0.014 | 0.312 ± 0.0063 | 0.34 ± 0.016 | 0.491 ± 0.0037 | 0.4533 ± 0.0034
22 | FFLLLVGFSVLG | 0.223 ± 0.071 | 0.265 ± 0.012 | 0.238 ± 0.024 | 0.421 ± 0.024 | 0.224 ± 0.024 | 0.222 ± 0.021 | 0.373 ± 0.0038 | 0.349 ± 0.0064
23 | FFLLTCFLLPSV | 0.44 ± 0.03 | 0.512 ± 0.013 | 0.346 ± 0.036 | 0.526 ± 0.014 | 0.328 ± 0.013 | 0.341 ± 0.024 | 0.514 ± 0.014 | 0.441 ± 0.015
24 | FFLSFRLFSILL | 0.304 ± 0.033 | 0.359 ± 0.021 | 0.342 ± 0.021 | 0.413 ± 0.014 | 0.412 ± 0.027 | 0.292 ± 0.017 | 0.368 ± 0.011 | 0.3114 ± 0.0026
25 | FFLVILSWWVGE | 0.182 ± 0.023 | 0.225 ± 0.056 | 0.197 ± 0.036 | 0.345 ± 0.028 | 0.185 ± 0.0019 | 0.205 ± 0.052 | 0.31 ± 0.017 | 0.242 ± 0.017
26 | FFMLWCRVLLRL | 0.144 ± 0.026 | 0.102 ± 0.017 | 0.215 ± 0.014 | 0.278 ± 0.0028 | 0.18536 ± 0.00012 | 0.145 ± 0.031 | 0.167 ± 0.0071 | 0.2187 ± 0.002
27 | FFVFPFGLLFLS | 0.504 ± 0.058 | 0.515 ± 0.013 | 0.433 ± 0.023 | 0.583 ± 0.011 | 0.2525 ± 0.0007 | 0.232 ± 0.02 | 0.385 ± 0.0085 | 0.342 ± 0.0054
28 | FFVKGFRLLVFQ | 0.454 ± 0.039 | 0.481 ± 0.013 | 0.421 ± 0.04 | 0.573 ± 0.014 | 0.461 ± 0.019 | 0.384 ± 0.014 | 0.516 ± 0.046 | 0.47 ± 0.015
29 | FIGVLVYICREG | 0.1903 ± 0.0018 | 0.359 ± 0.084 | 0.254 ± 0.017 | 0.44 ± 0.024 | 0.187 ± 0.0062 | 0.228 ± 0.037 | 0.373 ± 0.018 | 0.329 ± 0.032
30 | FITFLVFVGFFL | 0.393 ± 0.06 | 0.421 ± 0.0078 | 0.313 ± 0.022 | 0.495 ± 0.026 | 0.263 ± 0.0094 | 0.295 ± 0.026 | 0.448 ± 0.0071 | 0.355 ± 0.034
31 | FKKIKGKIEKKN | 0.736 ± 0.021 | 0.897 ± 0.023 | 0.609 ± 0.042 | 0.726 ± 0.05 | 0.339 ± 0.061 | 0.336 ± 0.012 | 0.448 ± 0.0082 | 0.481 ± 0.023
32 | FKWVSRIRLLDA | 0.485 ± 0.014 | 0.566 ± 0.049 | 0.51 ± 0.023 | 0.483 ± 0.0055 | 0.24 ± 0.028 | 0.246 ± 0.016 | 0.411 ± 0.017 | 0.316 ± 0.027
33 | FKYRVPLVGVVK | 0.30503 ± 3.5e-05 | 0.317 ± 0.033 | 0.245 ± 0.029 | 0.43316 ± 0.00012 | 0.203 ± 0.018 | 0.25 ± 0.02 | 0.3897 ± 0.00038 | 0.347 ± 0.0072
34 | FLDYLLFIFFFF | 0.431 ± 0.054 | 0.519 ± 0.041 | 0.419 ± 0.032 | 0.522 ± 0.0072 | 0.464 ± 0.0094 | 0.392 ± 0.037 | 0.473 ± 0.039 | 0.415 ± 0.008
35 | FLFQYLCIISSL | 0.0463 ± 0.007 | 0.166 ± 0.037 | 0.133 ± 0.046 | 0.233 ± 0.023 | 0.0866 ± 0.028 | 0.0716 ± 0.026 | 0.161 ± 0.013 | 0.217 ± 0.037
36 | FLGPMRVLVSSV | 0.568 ± 0.03 | 0.606 ± 0.032 | 0.424 ± 0.03 | 0.6003 ± 0.0019 | 0.401 ± 0.015 | 0.425 ± 0.026 | 0.565 ± 0.0044 | 0.522 ± 0.073
37 | FLLCRVFVLLRS | 0.043 ± 0.019 | 0.0441 ± 0.015 | 0.13 ± 0.037 | 0.215 ± 0.0095 | 0.1414 ± 0.0013 | 0.102 ± 0.018 | 0.125 ± 0.038 | 0.163 ± 0.045
38 | FLLPWLRPVFFF | 0.522 ± 0.056 | 0.607 ± 0.055 | 0.567 ± 0.013 | 0.69 ± 0.0074 | 0.219 ± 0.0046 | 0.218 ± 0.024 | 0.369 ± 0.029 | 0.293 ± 0.011
39 | FLLVGLLIVGCG | 0.175 ± 0.0045 | 0.272 ± 0.0014 | 0.206 ± 0.027 | 0.349 ± 0.018 | 0.166 ± 0.025 | 0.206 ± 0.026 | 0.334 ± 0.0082 | 0.225 ± 0.12
